Test system: Caspase-8
Assay: Caspase-8 biosensors transfected into HeLa cells, induction with TRAIL
Format: cell-based
Conditions: 1 μg/mL TRAIL, 37° C.
Description: To evaluate whether the mutant thermostable luciferase biosensors of the present invention can be used to detect Caspase-8 activity in cells, biosensors were generated that contained the Caspase-8 cleavage site, LETDG (SEQ ID NO:15). Two different biosensors, TL-CP358-Caspase-8 and TL-CP233-Caspase-8 were used. As controls, the firefly (Photinus pyralis; Ppy) luciferase biosensors FF-CP234-Caspase-8 (M/Ppy residues 234-544/LETDG/Ppy residues 4-230/V), FF-CP359-Caspase-8 (M/Ppy residues 359-544/LETDG/Ppy residues 4-355/V), and TL-CP358-DEVD.
All biosensors were transfected into HeLa cells. Cells were plated at a (10,000/well) into a 96-well tissue culture plate. […]
After overnight incubation, the media was removed from the cells and replaced with CO2 Independent Media (Invitrogen Cat. No. 18045088) with 2 mM Luciferin EF (Promega Cat. No. E6551). Cells were pre-equilibrated with Luciferin EF for 2 hrs in a Varioskan luminometer with bioluminescence readings taken every 20 min. […] The cells were again incubated at 37° C. in a Varioskan luminometer for 500+ min with bioluminescence measured every 20 min.
FIGS. 5 and 7 identify the kinetic profiles of Caspase 8 activation by TRAIL over time at 37° C. […] Fold induction of activation was calculated by dividing the signal of samples with TRAIL over the signals without trail at a given time point. […]

B1: TL-CP358-Caspase 8: TL Ppe fragments 358-543 and 4-354 with caspase-8 site linker … (SEQ ID NOs:59 and 60) (protein)
chain: MPGSTGKIVPLHAVKVVDPTTGKILGPNEPGELYFKGPMIMKGYYNNEEATKAIIDNDGWLRSGDIAYYDNDGHFYIVDRLKSLIKYKGYQVAPAEIEGILLQHPYIVDAGVTGIPDEAAGELPAAGVVVQTGKYLNEQIVQDYVASQVSTAKWLRGGVKFLDEIPKGSTGKIDRKVLRQMLEKHTNGSSLETDGSSGKNILYGPEPFYPLEDGTAGEQMFDALSRYAAIPGCIALTNAHTKENVLYEEFLKLSCRLAESFKKYGLKQNDTIAVCSENSLQFFLPVIASLYLGIIVAPVNDKYIERELIHSLGIVKPRIVFCSKNTFQKVLNVKSKLKSIETIIILDLNEDLGGYQCLNNFISQNSDSNLDVKKFKPYSFNRDDQVASIMFSSGTTGLPKGVMLTHKNIVARFSIAKDPTFGNAINPTSAILTVIPFHHGFGMMTTLGYFTCGFRVVLMHTFEEKLFLQSLQDYKVESTLLVPTLMAFLAKSALVEKYDLSHLKEIASGGAPLSKEIGEMVKKRFKLNFVRQGYGLTETTSAVLITPKGV
detection of Caspase 8 activation by TRAIL: can detect Caspase 8 activation by TRAIL
